Assay results published in paper PMC3836175 (Science (New York, N.Y.), 2013).

Target: T1, N-terminally truncated eIF5B (residues 396-1002) with the point mutation T439A (S. cerevisiae, UniProt P39730 396-1002, T439A)
T1 sequence (looked up): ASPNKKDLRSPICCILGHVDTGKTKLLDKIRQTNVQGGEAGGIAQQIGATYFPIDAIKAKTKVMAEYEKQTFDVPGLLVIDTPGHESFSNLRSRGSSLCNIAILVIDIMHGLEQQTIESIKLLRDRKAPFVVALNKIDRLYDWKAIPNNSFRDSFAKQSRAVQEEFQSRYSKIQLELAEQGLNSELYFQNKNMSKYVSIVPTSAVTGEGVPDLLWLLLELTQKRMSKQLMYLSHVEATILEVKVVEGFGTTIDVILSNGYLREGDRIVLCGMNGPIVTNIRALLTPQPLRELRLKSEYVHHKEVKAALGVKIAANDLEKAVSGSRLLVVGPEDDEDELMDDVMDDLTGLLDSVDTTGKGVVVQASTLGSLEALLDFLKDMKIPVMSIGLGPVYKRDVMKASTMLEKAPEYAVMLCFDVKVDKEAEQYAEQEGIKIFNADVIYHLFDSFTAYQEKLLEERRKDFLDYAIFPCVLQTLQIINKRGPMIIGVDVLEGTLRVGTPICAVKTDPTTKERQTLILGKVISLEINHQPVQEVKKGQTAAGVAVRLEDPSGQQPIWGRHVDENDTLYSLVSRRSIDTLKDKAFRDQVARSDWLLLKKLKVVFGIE
Experiment: cryo-EM structure

B1: ribosomal protein S23 (the yeast orthologue of bacterial protein S12) (natural protein, UniProt P0CX29 1-145, looked up)
chain: MGKGKPRGLNSARKLRVHRRNNRWAENNYKKRLLGTAFKSSPFGGSSHAKGIVLEKLGIESKQPNSAIRKCVRVQLIKNGKKVTAFVPNDGCLNFVDENDEVLLAGFGRKGKAKGDIPGVRFKVVKVSGVSLLALWKEKKEKPRS
Does B1 bind?
Result: binds
